In paper PMC5789857:

Molecular target: TBEV envelope protein (E-protein), strain Hypr, in the purified virion (tick-borne encephalitis virus, strain Hypr) (UniProt Q01299)
Assay: cryo-EM structure

With “TBEV envelope protein (E-protein), strain Hypr, in the purified virion (from UniProt Q01299) (natural protein)” the stoichiometry N was 2.
